In patent US8722043B2, “Induction of p53 expression by neutralization of neuropilin-2 for the treatment of cancers” (Diaclone, priority 2008, dated 2014):

Legend:
[1] = tested on: Colo320^siRNA-NRP-2 cells (not expressing NRP-2); assay: MTT assay for tumour cell proliferation; format: cell-based, human; settings: 5 μg/ml antibody; 24, 48 or 72 hours
Excerpt: (§1) The MTT proliferation assay is based on the reduction of 3-(4,5-dimethylthiazol-2-yl)-2,5-diphenyltetrazolium bromide), by the mitochondrial succinate dehydrogenase of active live cells, to give formazan. The coloration intensity (OD) induced by this reaction is proportional to the number of live cells present during the assay, and to the metabolic activity thereof.
(§2) 4000 cells per well of Colo320^siRNA-ctrl cells (control cells transfected with an empty vector) or of Colo320^siRNA-NRP-2 cells (transfected with an siRNA targeting NRP-2), in 100 μl of DMEM medium containing 10% of inactivated FCS, were seeded into a 96-well Maxisorp plate. After adhesion of the cells, 5 μg/ml of ITAC-B anti-NRP-2 antibody or 5 μg/ml of control antibody were added. After culture for 24, 48 or 72 hours, 10 p. 1 of MTT reconstituted at 5 mg/ml in PBS were added to each culture well. The plates were then incubated for 3 hours in the dark, at 37° C. and 5% CO2, and centrifuged, and then the supernatant was removed. 200 p. 1 of DMSO were then added to each well. The optical density was read within an hour, at 570 nm, after shaking with the plate. The assay was carried out in triplicate.
(§3) Panels A and B of FIG. 11 represent, respectively, the results obtained in the proliferation assay carried out with the Colo320^siRNA-ctrl or Colo320^siRNA-NRP-2 cells. […]

[2] = tested on: Colo320^siRNA-ctrl cells (express NRP-2); assay: MTT assay for tumour cell proliferation; format: cell-based, human; settings: 5 μg/ml antibody; 24, 48 or 72 hours
Excerpt: as §1, §2, §3

B1: ITAC-B1: anti-human neuropilin-2 murine monoclonal antibody, VH SEQ ID No. 2, VL SEQ ID No. 4, produced by hybridoma CNCM 1-4054 (antibody, listed as Mus musculus, V domains shown)
VH: EVKLQESGAELVKPGASVKLSCTVSGFNIKDTYIHWVIQRPEQGLEWLGRIDPANGNTKYDPKFQGKATITADTSSNTAYLQLSSLTSEDTAVYYCARWAVVGDYWGQGTTLTVSS
VL: YCDHPLYKFLHVSAGDRVTITCKASQSVSDDVAWYQQKPGQSPKLLIYSASNRYTGVPDRFTGSGYGTDFTFTISTVQPEDLAVYFCQQDYSSPTFGSGTKLELK
[1]
  proliferation (OD at 570 nm): identical to that of the control cells and to that observed in the presence of the control antibody
[2]
  proliferation (OD at 570 nm): less than that of the cells alone and that observed in the presence of the control antibody
